B1: Serine/threonine-protein kinase SCH9 (Saccharomyces cerevisiae), P11792 (parent)
chain: MMNFFTSKSSNQDTGFSSQHQHPNGQNNGNNNSSTAGNDNGYPCKLVSSGPCASSNNGALFTNFTLQTATPTTAISQDLYAMGTTGITSENALFQMKSMNNGISSVNNNNSNTPTIITTSQEETNAGNVHGDTGGNSLQNSEDDNFSSSSTTKCLLSSTSSLSINQREAAAAAYGPDTDIPRGKLEVTIIEARDLVTRSKDSQPYVVCTFESSEFISNGPESLGAINNNNNNNNNNQHNQNQHINNNNENTNPDAASQHHNNNSGWNGSQLPSIKEHLKKKPLYTHRSSSQLDQLNSCSSVTDPSKRSSNSSSGSSNGPKNDSSHPIWHHKTTFDVLGSHSELDISVYDAAHDHMFLGQVRLYPMIHNLAHASQHQWHSLKPRVIDEVVSGDILIKWTYKQTKKRHYGPQDFEVLRLLGKGTFGQVYQVKKKDTQRIYAMKVLSKKVIVKKNEIAHTIGERNILVTTASKSSPFIVGLKFSFQTPTDLYLVTDYMSGGELFWHLQKEGRFSEDRAKFYIAELVLALEHLHDNDIVYRDLKPENILLDANGNIALCDFGLSKADLKDRTNTFCGTTEYLAPELLLDETGYTKMVDFWSLGVLIFEMCCGWSPFFAENNQKMYQKIAFGKVKFPRDVLSQEGRSFVKGLLNRNPKHRLGAIDDGRELRAHPFFADIDWEALKQKKIPPPFKPHLVSETDTSNFDPEFTTASTSYMNKHQPMMTATPLSPAMQAKFAGFTFVDESAIDEHVNNNRKFLQNSYFMEPGSFIPGNPNLPPDEDVIDDDGDEDINDGFNQEKNMNNSHSQMDFDGDQHMDDEFVSGRFEI
partner: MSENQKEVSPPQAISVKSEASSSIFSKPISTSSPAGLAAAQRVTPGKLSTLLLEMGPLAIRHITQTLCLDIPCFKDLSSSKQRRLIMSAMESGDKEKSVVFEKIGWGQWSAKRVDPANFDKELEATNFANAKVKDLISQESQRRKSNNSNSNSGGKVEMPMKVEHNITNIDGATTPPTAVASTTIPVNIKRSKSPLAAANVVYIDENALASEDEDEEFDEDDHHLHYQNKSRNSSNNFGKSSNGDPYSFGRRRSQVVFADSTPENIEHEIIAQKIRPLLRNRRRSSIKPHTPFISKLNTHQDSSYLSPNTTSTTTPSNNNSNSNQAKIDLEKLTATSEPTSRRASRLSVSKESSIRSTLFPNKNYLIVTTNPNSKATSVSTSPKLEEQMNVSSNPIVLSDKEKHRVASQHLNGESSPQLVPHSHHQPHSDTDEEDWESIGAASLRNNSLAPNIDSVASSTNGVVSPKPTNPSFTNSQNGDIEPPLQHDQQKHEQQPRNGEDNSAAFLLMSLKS
B2: Transcriptional regulatory protein TOD6 (Saccharomyces cerevisiae), P34219 (parent)
chain: MTLPKLSSVSVSSGHVSANSHGFSILSKHPHPNNLVHSHSLSHTNAKSHLPISSTSTKENSTNKEEAESLKKNNPSSWDPSDDIKLRHLKEIKNLGWKEIAHHFPNRTPNACQFRWRRLKSGNLKSNKTAVIDINKLFGVYATGDATPSAGTPSAEEAVKEEAVEDEDITAGSSAIEDSPPDFKPLVKPKYMDRKLITQRSTSTFSDHEPQHTKPRKLFVKPRSFSHSITTNTPNVKTAQQTNLSLYNTTSAKTNKAVNSNDYENIGLVPKIIIRSRRNSFIPSTQIPHSTTKTRKNSHSVISSRRSSFNMMHSRRSSFNSHAPTEPISRRASLVVSPYMSPRRLSTSQSVHYHPQHQYYLNPIASPNCKTDHANDKITHTRTFLDMQKFANKHPWSREDDEVLLNNTKDKQNHLSPLEISIVLPNNRSELEIQQRMDYLKRKGRVSGFHTNEGCKDEEEEDDIDPLHKENGINTPSQQSQNYGMLEAKHDNPKSSELSSMTSANDIRNEQDELPGINSIFKNIF
partner: B1 chain
B3: Serine/threonine-protein kinase SCH9 (Saccharomyces cerevisiae), P11792 (parent)
chain: B1 chain
partner: B2 chain
B4: Transcriptional regulatory protein DOT6 (Saccharomyces cerevisiae), P40059 (parent)
chain: MSISTSLNSASIHLSSMDTHPQLHSLTRQPHSSSTAMSKNEAQESSPSLPASSSSSTSASASASSKNSSKNPSSWDPQDDLLLRHLKEVKKMGWKDISQYFPNRTPNACQFRWRRLKSGNLKSNKTALIDINTYTGPLKITHGDETANAQQKPSKKVEENVLTEDTAEFTTTSSIPIPSRKTSLPSFHASMSFSQSPSNVTPTTIVSNAASSMPFAPPTLPAALPHHPHQHLHHHPHHKTLKPRSNSHSFTNSLNQDPIVRSNDEEKYGFIPKVFVRSRRSSFAYPQQVAITTTPSSPNSSHVLLSSKSRRGSLANWSRRSSFNVSSNNTSRRSSMILAPNSVSNIFNVNNSGSNTASTSNTNSRRESVIKKEFQQRLNNLSNSGGPTSNNGPIFPNSYTFMDLPHSSSVSSSSTLHKSKRGSFSGHSMKSSCNPTNLWSKDEDALLMENKKRNLSVMELSILLPQRTEVEIQWRLNALSSDADMLSPTHSPQKTLSKKTCPRMFKSGSTTDDDKGSDKEDVMGDGSNDDDEDNVDPLHRAKQSSNKTVFSSSSSNISSKDVSPDPIFSPDPADDSSNTSDAGSRCTITSDTSSSAATMNRTPNSKNPQDIALLNNFRSEAITPRPKPSSTTTSITTETTNNMINHSSSTTTTTNNSPLPSINTIFKDML
partner: B1 chain
B5: Serine/threonine-protein kinase SCH9 (Saccharomyces cerevisiae), P11792 (parent)
chain: B1 chain
partner: B4 chain

Variants of: B1
Settings: with stb3_yeast STB3, Q12427

Row | Variant | effect of a mutation on the interaction
1 | T6E | increasing interaction

Variants of: B2
Settings: with sch9_yeast SCH9, P11792

Row | Variant | effect of a mutation on the interaction
2 | L6A | decreasing interaction

Variants of: B3
Settings: with tod6_yeast TOD6, P34219

Row | Variant | effect of a mutation on the interaction
3 | T6E | increasing interaction

Variants of: B4
Settings: with sch9_yeast SCH9, P11792

Row | Variant | effect of a mutation on the interaction
4 | T5A | decreasing interaction

Variants of: B5
Settings: with dot6_yeast DOT6, P40059

Row | Variant | effect of a mutation on the interaction
5 | T6E | increasing interaction
